Results taken from the supplement of paper PMC10724198.
± gives the standard deviation of the averaged measurements.

Tested on: Saccharomyces cerevisiae
Experiment: protein stability index of tFT-peptide fusion (C-terminal peptide) (PSI (0-1 scale)); higher = more stable (slower turnover)
Settings: genetic background: wild type; temperature: 30 C
Procedure: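 Multiplexed protein stability (MPS) profiling in S. cerevisiae. Random 12-aa peptides (tFT-X12 library) are fused to the C-terminus of a sfGFP-mCherry tandem fluorescent timer, after mCherry and a GGGS linker. Cells are FACS-sorted into 8 mCherry/sfGFP bins and deep-sequenced. The protein stability index (PSI) is the read-weighted bin average, scaled from 0 (unstable) to 1 (stable). Only peptides with >10 reads are reported; cells were grown at 30 °C in SC-His with glucose.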
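Also: PSI is a weighted mean of sequencing reads over stability bins, variants kept only with over 10 reads, mCherry proximal and sfGFP distal, peptide attached via GGGS linker.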

Sequence	protein stability index
CSVDSRLSMLVL	0.605 ± 0.044
IPDRSLFPWTGR	0.661 ± 0.012
PLSYRPPSRFYF	0.587 ± 0.061
PRLLSLKLSALS	0.629 ± 0.063
EIRIISGIDDRR	0.628 ± 0.077
GGGGSRWAGPRC	0.636 ± 0.031
RRVKRGGARKEA	0.654 ± 0.019
YCRGGGRAKREV	0.693 ± 0.014
PPPSRSLPPTPP	0.746 ± 0.084
WGGFGLGVCAKC	0.616 ± 0.072
RVSVSWDDGVMV	0.652 ± 0.0088
SQCGSLQIGRHL	0.714 ± 0.052
PPPPPPPHSPLS	0.685 ± 0.04
GEAVGRWSECRS	0.664 ± 0.0091
SQWGRVTMNLCG	0.706 ± 0.012
PTLHVGPGTPHA	0.705 ± 0.058
FDRQQDLTGMEM	0.769 ± 0.078
CEPSLPGRSRRA	0.753 ± 0.056
PSTRPQYLFLPP	0.635 ± 0.016
GYLLGCGCGWSG	0.621 ± 0.034
PPINPTEPPITI	0.696 ± 0.092
CPDSFARSAVLS	0.673 ± 0.074
PPRPPLPPTLPP	0.6973 ± 0.0026
VRIARSYERGGK	0.701 ± 0.059
PAYLMDRGYIMT	0.613 ± 0.031

Sequence	protein stability index
LGDLVFGLSVWL	0.684 ± 0.035
WFSGFLGEFNRF	0.706 ± 0.063
GQKKGRGGEREE	0.676 ± 0.03
GGLSGGMRIEDS	0.686 ± 0.028
PKSGPDQPQPPG	0.591 ± 0.086
VVECGERWWCLT	0.705 ± 0.032
RKTHTRTQKRKL	0.675 ± 0.01
DGVIVACWCRRS	0.66 ± 0.021
PTLSSRPPPYPR	0.642 ± 0.048
KQLKKKKQIRRK	0.728 ± 0.13
LNCRCMLSRHCW	0.666 ± 0.032
FYLMSDTNLPAL	0.664 ± 0.021
PSGPSTVLPSPL	0.6866 ± 0.0065
AWLCSVFLLSLS	0.533 ± 0.0076
PPPPPPPPPTFL	0.708 ± 0.017
YIKAPCMRQSGG	0.704 ± 0.019
GGGCGLFVFLSL	0.63 ± 0.058
RRYWVLSTVPVL	0.615 ± 0.028
PPLFTAAPRRWS	0.752 ± 0.093
SKDVLPGDDNVI	0.656 ± 0.073
GLGEWGGRGVCG	0.692 ± 0.015
SPPVRLPSASTV	0.681 ± 0.036
VIKRQSERRYLV	0.587 ± 0.039
KPQFNLQYTVKI	0.616 ± 0.025
IARENLNRSRFS	0.6602 ± 0.0056

Sequence	protein stability index
RIAARAIISRGG	0.657 ± 0.021
PPLVSPPPPLPP	0.62 ± 0.015
ELRPSTTPLHPS	0.68268 ± 0.00044
TWGACGKMLSDR	0.682 ± 0.026
DPRPRLNCSYEH	0.68 ± 0.014
GGGCERGVGLLG	0.626 ± 0.066
SLFPQIFFFFFA	0.498 ± 0.0099
PPSLVSPSSPPS	0.708 ± 0.047
SNCRLCGFGYVE	0.6966 ± 0.0062
AVNFESSHPICA	0.58 ± 0.0073
ILLFSLKHRSDH	0.63 ± 0.018
ISYGSGCGIVNH	0.683 ± 0.054
GGVGVGRGVCVF	0.6187 ± 0.0012
GGCAGGGGVVVR	0.6851 ± 0.0046
PPLLDASPAPIL	0.689 ± 0.024
WVSHMHLGSFVH	0.701 ± 0.09
FFDSPHCRYACV	0.744 ± 0.009
PLLPPPPPLSPP	0.6772 ± 0.0035
ALPPGSRPLIPS	0.628 ± 0.024
GGVVGVEWGAVG	0.626 ± 0.015
PRPCPASSPRPP	0.627 ± 0.083
HPPPARSPPSLP	0.741 ± 0.041
GGGGGGGWGAVG	0.688 ± 0.0076
SASSPLPPAATG	0.652 ± 0.051
PRPPPPCPPPSL	0.71 ± 0.083

Sequence	protein stability index
SYLTQNGYAFRQ	0.644 ± 0.082
SPPRLPPLAAPP	0.676 ± 0.07
VGSTKMRYFGEG	0.692 ± 0.018
APIQPGEDKLKR	0.64 ± 0.0099
LFVLSLHLPCFG	0.498 ± 0.02
SPPPFPHPHQLP	0.726 ± 0.029
ESRPRVGLERER	0.676 ± 0.053
PLLPPPLSPFPH	0.659 ± 0.013
RRVRTTKKGLTI	0.7266 ± 0.0036
PGTGPPSWGRTS	0.605 ± 0.047
GGVGGGAAEGAV	0.758 ± 0.024
KMNKTEYINGMT	0.652 ± 0.038
VISLPWRPKSWW	0.739 ± 0.07
SRKKDEGEYHRK	0.68 ± 0.036
SCCPVESSHSLP	0.612 ± 0.055
LIKKSFYMKIIK	0.59 ± 0.057
IFYTHRSLSGNL	0.659 ± 0.036
LLVWPLDQTFRL	0.698 ± 0.019
PSLLPPRVCRPS	0.68 ± 0.089
LQRAPKLLPSSS	0.683 ± 0.03
TLDGGESSVVAV	0.685 ± 0.025
LFPPTPRPLPLP	0.654 ± 0.023
QKKKKRKDKRTK	0.7067 ± 0.0053
KDRGEIKIRTKN	0.696 ± 0.039
SVSVLSPPPLPP	0.636 ± 0.015

Sequence	protein stability index
ASLDTALVHITL	0.622 ± 0.0064
GVGGAGIGVGMG	0.705 ± 0.032
PAPPSPSPPPPL	0.836 ± 0.14
DVLLKVDATKTP	0.685 ± 0.032
TGWLRLLHAASG	0.656 ± 0.045
PPPLPPPAPPPR	0.663 ± 0.014
PPPPPATRPSSL	0.674 ± 0.018
TPEQMKIKRNVE	0.69 ± 0.009
PSVPLLPPAPLS	0.784 ± 0.075
YLGTETSLTSLK	0.786 ± 0.088
RAGCWFAGYSRV	0.721 ± 0.078
PPPSSSSPPPPR	0.704 ± 0.039
VVVGVGGCVYMG	0.702 ± 0.06
SRVVTSRLVLSS	0.606 ± 0.017
WAGGGRVDDGGG	0.643 ± 0.059
PRSSLPPPPSLP	0.686 ± 0.038
GAGRVRAPGRWP	0.6965 ± 0.0035
RYNRMVERALKY	0.677 ± 0.027
APSEPVIYLPRV	0.746 ± 0.14
FLLNPPSLPCYY	0.727 ± 0.034
KVIGSAPRAEGR	0.656 ± 0.065
TVRKMEKKKDGG	0.663 ± 0.012
CTLMPPQSRRPP	0.604 ± 0.057
GGGLGGLGCFMV	0.698 ± 0.036
PPPPLPPPSHYP	0.728 ± 0.033

Sequence	protein stability index
PPSPPPPRPPSS	0.704 ± 0.055
LFGLCLAGFCVP	0.625 ± 0.046
ACLCLPGVRVGG	0.625 ± 0.038
FRDEGYCFADLV	0.71 ± 0.094
ETARENENTIGE	0.6575 ± 0.0065
DRLCAAPHYGTH	0.599 ± 0.045
GGGGGGLLDVGV	0.685 ± 0.027
TPIAGGAKLFHV	0.646 ± 0.058
HTPPPPRHPYKH	0.741 ± 0.055
AFRGFLSVNFNL	0.7338 ± 0.005
PPHTHTQRPSPT	0.715 ± 0.027
DWEPGGGGRMVG	0.703 ± 0.081
GPHAPPPSFPAP	0.718 ± 0.074
KADLKTKNMCRL	0.765 ± 0.017
CPCASEYIAFTL	0.701 ± 0.018
PPPPPPLSSPFP	0.643 ± 0.032
PRRPPPSPPVPP	0.532 ± 0.03
LPLIRQLPNPPP	0.648 ± 0.031
LHAGHSNSVLAF	0.601 ± 0.0075
VYMDKKNKCIMK	0.795 ± 0.15
FGNFCCRWSLGP	0.66 ± 0.12
SLRMTVFTAPLS	0.654 ± 0.007
KKNKGKGREVRI	0.67 ± 0.049
LCPPLPPSPPRS	0.70073 ± 0.00018
DERLEIKERLEF	0.739 ± 0.071

Sequence	protein stability index
PTSVRPPRRRPR	0.745 ± 0.089
KKTKKKRTEPQP	0.724 ± 0.068
SHPPPTVPPAIP	0.677 ± 0.013
GEVILERKRRKI	0.629 ± 0.057
RPPPPSPRPTRR	0.755 ± 0.032
AGSLPLLYPSLR	0.745 ± 0.015
REGVELTRPVTC	0.696 ± 0.041
PSRAPQGRADNT	0.69 ± 0.11
ALPRFPATSFPT	0.695 ± 0.04
GTKGEGGGKGGV	0.693 ± 0.038
NKLYDESLALYP	0.704 ± 0.044
GGVGAFAARRFA	0.634 ± 0.012
SNRQDHACGGSA	0.687 ± 0.11
ATSPPGLLAQPA	0.663 ± 0.0017
VSPLDSPASLYS	0.6573 ± 0.0062
GFLVPVALCPVV	0.557 ± 0.03
TPGMCDRQFGVD	0.685 ± 0.028
RGRQRSDPPTRL	0.717 ± 0.061
YPSLPQIVLATV	0.5033 ± 0.004
LQVTLALSAALP	0.802 ± 0.079
RPSHSPAFSAFF	0.681 ± 0.024
VVVSGGGEGFWL	0.745 ± 0.027
GFEIFYLVLGIP	0.52979 ± 0.00023
VVGRGGLICGRW	0.625 ± 0.072
FRLGTMYDILPL	0.69 ± 0.023

Sequence	protein stability index
LLRWCFDLWWVL	0.532 ± 0.051
RPPSPPLPPPLS	0.6906 ± 0.0013
GGPTCSSSCDPV	0.67 ± 0.038
ALLGGQLVWNSK	0.667 ± 0.14
YNSTVVKKGRCP	0.7024 ± 0.0028
RFWGWCSAVLSS	0.622 ± 0.056
NSCVFCLCHDLA	0.6991 ± 0.006
PYTHDRTTSPVF	0.762 ± 0.12
PSPHHHYTPPST	0.681 ± 0.0073
CGEEVGGGVMIW	0.689 ± 0.015
DRRTGRAGEMSP	0.669 ± 0.064
CGKPRIHEGRLM	0.691 ± 0.02
LLFPFSLHLSPP	0.765 ± 0.066
GLDEGCRGGEEV	0.673 ± 0.0092
PFIPQPFPPLCS	0.709 ± 0.075
TGAGGPGPRNRK	0.774 ± 0.064
GRERMVVVSCGS	0.629 ± 0.043
VLVVFVGDSSKR	0.662 ± 0.039
GWGCCWSVAWTF	0.614 ± 0.026
RKNIKYNTKNSI	0.654 ± 0.03
VCFVGSCFKLVL	0.6324 ± 0.0032
